Biological target: barnase (Bacillus amyloliquefaciens) (UniProt P00648)
Experiment: BLI

Chain of UniProt P00648 (P00648 48-157): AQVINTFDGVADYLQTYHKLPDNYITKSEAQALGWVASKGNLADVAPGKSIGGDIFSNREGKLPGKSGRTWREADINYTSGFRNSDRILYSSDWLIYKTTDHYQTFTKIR

- Kd: < 0.1 nM
Substance: green fluorescent protein-Bs (GFP-Bs) fusion protein

Source: publication doi:10.1101/2025.01.15.633204
